In publication PMC11761773:

Target: Fc-binding nanodisc F-ND_(P2N2), made with F-MSP2N2
Test: SEC

With immunoglobulin G (IgG) (antibody) as the substance, how does the stoichiometry N read?
The stoichiometry N was 1 molar ratio.
